# Numbering of substitutions follows the chain as printed.
# B1: aptamer No. 86 (mixed)
# mixed: GGGUAGCCGGAGGAGTCAGTGAUCGGUACCC
# modifications: g(M)g(M)g(M)u(M)a(M)g(S)c(M)c(M)Gg(M)a(M)gg(M)a(M)g(S)Tc(M)a(F)g(S)Tg(M)a(M)u(M)c(M)g(M)g(M)u(M)a(M)c(M)c(M)c(M)
# B2: aptamer No. 87 (mixed)
# mixed: B1 mixed
# modifications: g(M)g(M)g(M)u(M)a(M)g(S)c(M)c(M)Gg(M)a(M)gg(M)a(M)g(S)Tc(M)a(F)g(S)Tga(M)u(M)c(M)g(M)g(M)u(M)a(M)c(M)c(M)c(M)
# B3: aptamer No. 89 (mixed)
# mixed: B1 mixed with G21A
# modifications: g(M)g(M)g(M)u(M)a(M)g(S)c(M)c(M)Gg(M)a(M)gg(M)a(M)g(S)Tc(M)a(F)g(S)Taa(M)u(M)c(M)g(M)g(M)u(M)a(M)c(M)c(M)c(M)
# B4: aptamer No. 90 (mixed)
# mixed: B1 mixed with G21A
# modifications: g(M)g(M)g(M)u(M)a(M)g(S)c(M)c(M)Gg(M)a(M)gg(M)a(M)g(S)Tc(M)a(F)g(S)Ta(M)au(M)c(M)g(M)g(M)u(M)a(M)c(M)c(M)c(M)
# B5: aptamer No. 91 (mixed)
# mixed: B1 mixed with G21A
# modifications: g(M)g(M)g(M)u(M)a(M)g(S)c(M)c(M)Gg(M)a(M)gg(M)a(M)g(S)Tc(M)a(F)g(S)Taau(M)c(M)g(M)g(M)u(M)a(M)c(M)c(M)c(M)
# B6: aptamer No. 92 (mixed)
# RNA: B1 mixed with T16U, T20U, G21A
# modifications: g(M)g(M)g(M)u(M)a(M)g(S)c(M)c(M)Gg(M)a(M)gg(M)a(M)g(S)u(F)c(F)a(F)g(S)u(F)aa(M)u(M)c(M)g(M)g(M)u(F)a(M)c(M)c(M)c(M)
# B7: aptamer No. 93 (mixed)
# RNA: B1 mixed with T16U, T20U, G21A
# modifications: g(M)g(M)g(M)u(M)a(M)g(S)c(M)c(M)Gg(M)a(M)gg(M)a(M)g(S)u(F)c(F)a(F)g(S)u(F)a(M)au(M)c(M)g(M)g(M)u(F)a(M)c(M)c(M)c(M)
# B8: aptamer No. 94 (mixed)
# RNA: B1 mixed with T16U, T20U, G21A
# modifications: g(M)g(M)g(M)u(M)a(M)g(S)c(M)c(M)Gg(M)a(M)gg(M)a(M)g(S)u(F)c(F)a(F)g(S)u(F)aau(M)c(M)g(M)g(M)u(F)a(M)c(M)c(M)c(M)
# B9: aptamer No. 1 (mixed)
# RNA: B1 mixed with T16U, T20U, G21A
# modifications: LNA (L), 2'-F (F), PS (S), mc methylcytosine as marked; SEQ ID NO:1 [LNA at 1-3,29-31 (29-31 methylcytosine); 2'-F at 4,7,8,16,17,20,23,24,27; PS at 6,9]
# B10: aptamer No. 10 (mixed)
# mixed: B1 mixed with G21A
# modifications: 2'-OMe (M), 2'-F (F), PS (S) as marked; uppercase DNA [1,2,3,4,5,6,7,8,10,11,13,14,17,18,21,23,24,25,26,27]
# B11: aptamer No. 6 (mixed)
# mixed: B1 mixed with G21A
# modifications: 2'-OMe (M), 2'-F (F), PS (S) as marked; uppercase DNA; (NI) printed, likely (M) [1,2,3,4,5,6,7,8,10,13,14,17,18,21,22,23,24,25,26,27]
# B12: aptamer No. 7 (mixed)
# RNA: B1 mixed with T16U, T20U, G21A
# modifications: 2'-OMe (M), 2'-F (F), PS (S) as marked; uppercase DNA [1,2,3,4,6,7,8,10,11,13,14,16,17,18,20,23,24,25,26,27,28]
# B13: aptamer No. 8 (mixed)
# mixed: B1 mixed with G21A
# modifications: 2'-OMe (M), 2'-F (F), PS (S) as marked; uppercase DNA [1,2,3,4,6,7,8,10,11,13,14,17,18,23,24,25,26,27,28]
# B14: aptamer No. 9 (mixed)
# mixed: B1 mixed with G21A
# modifications: 2'-OMe (M), 2'-F (F), PS (S) as marked; uppercase DNA [1,2,3,4,6,7,8,10,11,13,14,17,18,21,22,23,24,25,26,27,28]
# B15: aptamer No. 11 (mixed)
# mixed: B1 mixed with G21A
# modifications: 2'-OMe (M), 2'-F (F), PS (S) as marked; uppercase DNA [1,2,3,4,6,7,8,10,11,13,14,17,18,21,23,24,25,26,27,28]
# B16: aptamer No. 12 (mixed)
# mixed: B1 mixed with G21A
# modifications: 2'-OMe (M), 2'-F (F) as marked; uppercase DNA [1,2,3,4,7,8,10,11,13,14,17,18,21,22,23,24,25,26,27,28]
# B17: aptamer No. 13 (mixed)
# mixed: B1 mixed with G21A
# modifications: 2'-OMe (M), 2'-F (F) as marked; uppercase DNA; (N) printed, likely (M) [1,2,3,4,7,8,10,11,13,14,17,18,21,23,24,25,26,27,28]
# B18: aptamer No. 14 (mixed)
# mixed: B1 mixed with G21A
# modifications: 2'-OMe (M), 2'-F (F) as marked; uppercase DNA [1,2,3,4,6,7,8,10,11,13,14,17,18,21,22,23,24,25,26,27,28]
# B19: aptamer No. 15 (mixed)
# mixed: B1 mixed with G21A
# modifications: 2'-OMe (M), 2'-F (F) as marked; uppercase DNA [2'-OMe: 1-4,7,8,10,13,14,21,23-26,28; 2'-F: 6,11,17,18,27]
# B20: aptamer No. 16 (mixed)
# mixed: GGGGUAGCCGGAGGAGTCAGTAAUCGGUACCCC
# modifications: 2'-OMe (M), 2'-F (F), PS (S) as marked; uppercase DNA [2'-OMe: 1-5,8,9,11,14,15,22-27,29; 2'-F: 12,18,19,28; PS: 7]
# B21: aptamer No. 17 (mixed)
# mixed: B20 mixed
# modifications: 2'-OMe (M), 2'-F (F), PS (S) as marked; uppercase DNA [2'-OMe: 1-5,8,9,11,14,15,22,24-27,29; 2'-F: 12,18,19,28; PS: 7]
# B22: aptamer No. 21 (mixed)
# mixed: B1 mixed with G21A, U27T
# modifications: 2'-OMe (M), 2'-F (F), PS (S) as marked; uppercase DNA [2'-OMe: 1-4,7,8,10,13,14,23-26,28-31; 2'-F: 17; PS: 6]
# B23: aptamer No. 22 (mixed)
# mixed: B1 mixed with G21A, U27T
# modifications: 2'-OMe (M), 2'-F (F) as marked; uppercase DNA [2'-OMe: 1-4,7,8,10,13,14,23-26,28-31; 2'-F: 17]
# Target: T1, IL-17 (IL-17A) (Homo sapiens, UniProt Q16552 Q16552:24-155)
# T1 sequence: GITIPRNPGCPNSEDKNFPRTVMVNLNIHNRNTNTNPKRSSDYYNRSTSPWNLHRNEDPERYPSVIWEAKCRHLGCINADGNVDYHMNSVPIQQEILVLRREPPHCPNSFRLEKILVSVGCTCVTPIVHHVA
# Assay: cell_activity; IL-6 release, NIH3T3
# Details: chain copies: 2
# Method: (§1) First, human IL-17 and the aptamer produced in Example 1-2 were pre-incubated at 37° C. for 30 min, and added to NIH3T3 cell (ATCC, CRL1658) together with mouse TNFα (2 ng/mL). Then, after incubation for 24 hr, the culture supernatant was collected, and the production amount of IL-6 was measured by ELISA method described below. The IL-17 inhibitory action of each aptamer was determined from the production amount of IL-6. For comparison with the aptamer of the present invention, a conventionally-known aptamer (aptamer No. 50) against IL-17 was used.
# ELISA method for verifying IL-17 inhibitory action of aptamer: A microtiter plate for ELISA was coated with rat anti-mouse IL-6 antibody (BD Biosciences, 2 μg/mL; 100 μL/well) diluted with PBS, and incubated at 4° C. overnight. The next day, the microtiter plate was washed 3 times with PBS/0.05% Tween 20, and applied blocking with PBS/1% BSA (200 μL/well) at room temperature for 2 hr. Then, the plate was washed 3 times with PBS/0.05% Tween 20. Recombinant mouse IL-6 (BD Biosciences; 100 μL/well) serially diluted with PBS/1% BSA/0.05% Tween 20 or culture supernatants (100 μL/well) were added to the plate. After incubation at room temperature for 2 hr, the plate was washed 3 times with PBS/0.05% Tween 20. Then, 100 μL/well of biotin conjugated rat anti-mouse IL-6 antibody (BD Biosciences) was added to the plate at final dilution of 1/500, and the mixture was reacted at room temperature for 1 hr. After washing 3 times with PBS/0.05% Tween 20, 100 μL/well of alkaline phosphatase conjugated streptavidin was added at final dilution of 1/1000. After 30 min at room temperature, the plate was again washed 4 times with PBS/0.05% Tween 20, and a substrate (1-Step PNPP; Thermo Fisher Scientific Inc; 100 μL/well) was added. After 15 min, aqueous sodium hydroxide solution (2N: 50 μL/well) was added to stop the reaction, and the plate was read on a microtiter reader (Bio-Rad) by using a 405 nm filter.
row,Binder,IC50 [pM]
1,B1,5160
2,B2,3230
3,B3,6210
4,B4,1080
5,B5,3860
6,B6,2600
7,B7,220
8,B8,290

# Target: T2, IL-17 (Homo sapiens, UniProt Q16552 Q16552:24-155)
# T2 sequence: T1 sequence
# Assay: SPR; IL-17R-Fc on chip
# Details: chain copies: 2
# Method: Whether aptamers shown by aptamer Nos. 1-49 inhibit the binding of IL-17 and IL-17 receptor was evaluated by the surface plasmon resonance method.
# For the measurement, BIAcore2000 manufactured by BIAcore was used. […] As an analyte, IL-17 (100 or 150 nM) and an aptamer (50 or 100 nM) shown by aptamer No. 1-49 were mixed, maintained for 15 min and after that the mixture was flown.
row,Binder,binding signal
1,B9,28.6 % IL-17/IL-17R binding remaining
2,B10,25.2 % IL-17/IL-17R binding remaining
3,B11,25.3 % IL-17/IL-17R binding remaining
4,B12,18.4 % IL-17/IL-17R binding remaining
5,B13,15.3 % IL-17/IL-17R binding remaining
6,B14,8.94 % IL-17/IL-17R binding remaining
7,B15,16.8 % IL-17/IL-17R binding remaining
8,B16,24.4 % IL-17/IL-17R binding remaining
9,B17,13.8 % IL-17/IL-17R binding remaining
10,B18,16.5 % IL-17/IL-17R binding remaining
11,B19,14.2 % IL-17/IL-17R binding remaining
12,B20,27.9 % IL-17/IL-17R binding remaining
13,B21,4.21 % IL-17/IL-17R binding remaining

# Target: T2, IL-17
# Assay: cell_activity; NIH3T3 IL-6 release
# Details: chain copies: 2
# Method: as §1, with “1-1” for “1-2”, “the” for “the production”, “BD Cytometric Bead Array (BD Biosciences).” for “ELISA method described below.”
row,Binder,IC50 [pM]
1,B9,1170
2,B10,630
3,B11,770
4,B12,300
5,B13,490
6,B14,640
7,B15,340
8,B16,520
9,B17,400
10,B18,500
11,B19,630
12,B20,250
13,B21,300
14,B22,390
15,B23,1660
